The record followed here is the RNAGym collection of RNA variant scans (doi:10.1073/pnas.2313332121).

B1: TPR t1 (parent)
chain: GACCAAUCUGCCCUCAGAGCUCGAGAACAUCUUCGGAUGCAGAGGAGGCAGGCUUCGGUGGCGCGAUAGCGCCAACGUCCUCAACCUCCAAUGCAUCCCACCACAUGAUGAUGCCUGAAGAGCCUUGGUUUUUUG

This data set covers variants of B1. The experiment in a line: polymerase ribozyme fitness, log enrichment relative to wild type (log ratio); higher = more active; in vitro selection for triplet polymerase activity. The method, boiled down: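 For each subunit of a heterodimeric triplet polymerase ribozyme, a mutant library was built by PCR and transcribed, then taken through a single in vitro selection round in triplicate. Selection involved annealing to a biotinylated primer, the partner subunit and triplets, incubation frozen at −7 °C, gel excision of extended constructs, capture on streptavidin beads and RT-PCR. Genotypes were retained after Illumina sequencing of inputs and outputs only with ≥10 input reads and ≥1 read in each output. Fitness is defined as the logarithm of a genotype's enrichment relative to wild-type enrichment, using inverse-variance-weighted averages across replicates, with the logarithm taken to base 2.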
C4A A119C G120A G127U: the “polymerase ribozyme fitness (log ratio)” value is -0.47.
The same measure for C3U U7G C20U U21G G71U G110U C124G: -5.25; for C4A C72G: -1.81.
Regarding C4G A5U C8U C101G C104U, the “polymerase ribozyme fitness (log ratio)” value is -3.99.
Turning to C3U G69U, the “polymerase ribozyme fitness (log ratio)” value was determined as 0.198.
The same measure for C3U G69C: -1.44; for C4A A24G: -4.5.
The same measure for C3U G93U: -1.95.
To C3U G52U G57U C82A G122A belongs -3.12.
Regarding C3U G60A U92A, the “polymerase ribozyme fitness (log ratio)” value was -3.06.
For the variant C4A U87C G120A G127A, the “polymerase ribozyme fitness (log ratio)” value was -0.66.
To C4A G52A C53A A90U U130C belongs -3.34; to C3U G48A, -1.92; to C3U G48U, -0.574.
The same measure for C3U G93A C102U: -2.82; for C3U G58A: -0.199.
On to C3U G58C, for which the “polymerase ribozyme fitness (log ratio)” value was -0.467.
As to C4A A46U C56U C72G C123G, the “polymerase ribozyme fitness (log ratio)” value was -4.32.
With C3U G36C G58C U112G, the “polymerase ribozyme fitness (log ratio)” value is -0.836.
C4A A5U C15G C88U G120C: the “polymerase ribozyme fitness (log ratio)” value is -4.83.
To C3U G39U U81C A111C belongs -2.34; to C4A A90U, -2.78.
The same measure for C4A G48A G57A C85U C101A: -4.21.
The same measure for C4A C8A U9C C82U C114U: -2.35; for C4A C40U C62A U112A: -2.53; for C4A G63A A83U A118G: -3.12.
With C3U G61U C80G, the “polymerase ribozyme fitness (log ratio)” value was -5.52.
Regarding C4A A5G A111C, the “polymerase ribozyme fitness (log ratio)” value is -0.259.
As for C4A G17U C73U, the “polymerase ribozyme fitness (log ratio)” value was -3.37.
Take C3U G63A C76U G110A C124U: the “polymerase ribozyme fitness (log ratio)” value was -5.42.
On to C4A G71A A84C G117U, for which the “polymerase ribozyme fitness (log ratio)” value is -6.14.
To C3U G39U G61A G93C C101A belongs -3.7; to C4A C56A, -2.53.
For C4A C56U, the “polymerase ribozyme fitness (log ratio)” value was -0.847.
To C4A C56G belongs -1.83; to C3U G42U, -1.55.
Turning to C4A G69U G110A U112A G117A, the “polymerase ribozyme fitness (log ratio)” value was -3.21.
To C4A U32C G61A U106A G127U U130G G135U belongs -2.56; to C4A C73U, -1.49.
The same measure for C3U G44C A46U G110A: -2.98; for C4A U7G G35U G63C G65U C98U G117U: -6.
Turning to C4A G128C, the “polymerase ribozyme fitness (log ratio)” value is -1.53.
Turning to C3U G35U C70A C99A C115A, the “polymerase ribozyme fitness (log ratio)” value is -4.32.
To C4A C102U C123A belongs -3.39; to C4A U9G C40U G44A U55C C88A G120C, -3.07.
On to C4A C13U A24C C40G A111G, for which the “polymerase ribozyme fitness (log ratio)” value is -5.59.
To C4A G52A C73A belongs -2.51; to C4A C8G G36U G45U U78A C114U, -5.41.
The same measure for C3U G57U G69A: -3.04; for C4A C11G A16G G36C C56U G113U: -2.81; for C4A U78A G93C C115A: -2.87.
As for C4A A6C C53A C82A G117C, the “polymerase ribozyme fitness (log ratio)” value was -7.24.
With C3U G45C G61A, the “polymerase ribozyme fitness (log ratio)” value worked out at 0.0995.
For C4A C8G A18C G23C U112G U116A, the “polymerase ribozyme fitness (log ratio)” value was -5.14.
Take C4A C20A: the “polymerase ribozyme fitness (log ratio)” value is -4.2.
C4A U9A C72A U78C: the “polymerase ribozyme fitness (log ratio)” value was -0.731.
To C4A C13U C124A belongs 0.115; to C3U G52A A121U, 1.95.
The same measure for C4A C11G C13A C53U G69C U81G G110A: -6.32; for C3U G52A: -0.0464.
For the variant C3U G47U C53G U96G C104U A118G C124U, the “polymerase ribozyme fitness (log ratio)” value is -1.09.
The same measure for C3U U59G G113A: -1.89.
To C3U G113A belongs -1.68; to C4A C49G A83G C88A C102U G120C, -5.38.
Regarding C4A A41G U106A, the “polymerase ribozyme fitness (log ratio)” value was -1.87.
Regarding C3U G45A G71A C79U, the “polymerase ribozyme fitness (log ratio)” value is -1.81.
To C4A C40U C53U G57U A83C G113U belongs -5.8; to C4A G69U U106C C124U, -1.05; to C4A C40U C114U, -4.58.
In the case of C3U U54C G61A A90C, the “polymerase ribozyme fitness (log ratio)” value is -0.844.
With C4A U7A G71A, the “polymerase ribozyme fitness (log ratio)” value is -1.76.
The same measure for C4A G36C C104U A119G A121U G128U U129A: 0.665; for C3U U78C: 0.0101; for C4A A43G U130C: -2.6.
On to C3U U7G G42U, for which the “polymerase ribozyme fitness (log ratio)” value is -1.73.
On to C3U G57C C62U C97U A108G C123U C124G, for which the “polymerase ribozyme fitness (log ratio)” value was -1.18.
To C4A G10U A84G belongs -2.55.
The same measure for C3U G39A G69A A105C G120U G128C: -6.86.
The same measure for C4A G71A A100U C123U: -2.04.
Turning to C3U G48A G60C G113A, the “polymerase ribozyme fitness (log ratio)” value was -1.14.
To C4A G60U G127A belongs -2.51; to C3U G107A C124G G128A U133G, -4.53; to C4A A18C G42U C86G C114G, -3.47.
